In patent US20250066759 one finds binding data, which are given here for one substance.

This data set relates to Bs-CspB-100V80 fusion (ssRNA purification reagent, Isotag) (Bacillus subtilis). Conditions: percent of spiked dsRNA eluted; greater than 4-log dsRNA removal; dsRNA ELISA.

Where only a bound is given, the exact number is not on record here.

Take “dsRNA matching the sequence and size of the eGFP ssRNA”: the binding is less than 4%.
